Target: pyruvate kinase M2 (PKM2), endogenous in RAW264.7 macrophages (mouse (endogenous in RAW264.7)) (UniProt P52480)
Assay: cross-linking; lysates (RIPA buffer) of cells with endogenous PKM2 (RAW264.7, LX2, WRL68) treated with 1 µM DSS on ice for 1 h, SDS-PAGE, blot with PKM2 antibody; cells treated with the four compounds, or LPS with FE (12.5, 25, 50 µM) or DASA-58

Sequence of pyruvate kinase M2 (PKM2), endogenous in RAW264.7 macrophages, P52480 1-531 (enzyme; other documents disagree on this pair) (P52480 whole entry): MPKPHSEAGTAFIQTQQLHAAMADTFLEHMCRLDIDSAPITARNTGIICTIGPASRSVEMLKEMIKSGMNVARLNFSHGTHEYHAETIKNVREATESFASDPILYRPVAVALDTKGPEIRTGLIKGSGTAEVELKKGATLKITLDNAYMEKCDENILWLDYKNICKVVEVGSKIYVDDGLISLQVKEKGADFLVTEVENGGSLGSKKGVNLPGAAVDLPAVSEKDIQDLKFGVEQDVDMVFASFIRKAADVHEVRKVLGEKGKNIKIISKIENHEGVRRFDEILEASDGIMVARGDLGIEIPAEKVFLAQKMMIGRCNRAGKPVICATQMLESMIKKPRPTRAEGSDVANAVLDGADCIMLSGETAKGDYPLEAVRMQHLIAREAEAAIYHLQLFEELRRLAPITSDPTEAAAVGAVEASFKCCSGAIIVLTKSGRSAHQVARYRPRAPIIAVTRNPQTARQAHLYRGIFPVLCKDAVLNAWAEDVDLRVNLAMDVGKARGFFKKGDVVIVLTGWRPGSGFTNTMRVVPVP

Substance: pyruvate kinase M2 (PKM2), endogenous in RAW264.7 macrophages, P52480 1-531 (enzyme; other documents disagree on this pair)
- stoichiometry N: 4

— PMC12866822
